A short description of the data set: amyloid nucleation score (Sup35N fusion, yeast selection) (log enrichment); library NNK1; higher = more nucleation; inactive = no reads after selection. In short, it runs like this: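 Sup35N was fused to peptides of 20 random codons and expressed in psi-negative yeast, which were induced with 100 μM copper sulfate for 24 hours and then grown on medium lacking adenine and uracil for 7 days at 30°C. Plasmid inserts from input and output were sequenced on Illumina. The nucleation score is the DiMSum log enrichment of output over input reads, centred on the mode score of non-aggregating sequences. Sequences with under 100 input reads were left out, and random libraries had three technical output replicates.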

This is an account of results in the supplement of paper PMC12042874.

± gives the uncertainty stated by the source.

In the case of TFSLCKWVHSANKGLVQMTF, the amyloid nucleation score worked out at 0.265 ± 0.41.

With FLFACFMRVAL, the amyloid nucleation score turned out to be 1.46 ± 0.24.

Consider TSHAVFNTVINLVVFVDQHC, for which the amyloid nucleation score came to 8.111 ± 0.055.

In turn, CAIWFRTEWFWTVCTWVSGH registered an amyloid nucleation score of -0.201 ± 0.43.

With LTYCDIVLSMMSLDEKSDYD, the amyloid nucleation score result is “inactive”.

The substance ISSECQVICYLLHEFSPASV showed an amyloid nucleation score of 1.35 ± 0.25.

In turn, SQFLLYSPINFLCFAENHNG registered an amyloid nucleation score of 6.36 ± 0.078.

The substance KKFFKYELFEVCIFLGYRCS registered an amyloid nucleation score of 0.493 ± 1.2.

VCHAVRISISSSASTLAE came in with an amyloid nucleation score of -0.122 ± 0.33.

For the substance THLVTCKGGLSMPDLVYRHV, the amyloid nucleation score is 0.183 ± 0.28.

SLVSGSVGCLGRYQFRESKP displayed an amyloid nucleation score of 0.422 ± 0.45.

Substance ATCNSVRARGFTPGHHLAPG registered an amyloid nucleation score of -0.405 ± 1.7.

LESFWGSPA displayed an amyloid nucleation score of 0.445 ± 1.2.

As for WLVLTMS, the amyloid nucleation score turned out to be 0.086 ± 0.36.

For the substance YMCTLRGGGSDCTWAYPKWG, the amyloid nucleation score was 0.275 ± 0.48.

For the substance EDMTLMLNNFSPILAIGWWT, the amyloid nucleation score was determined as 1.25 ± 0.25.

Substance RSNCWFEV displayed an amyloid nucleation score of 0.035 ± 0.4.

In the case of ISINQIMFAKGPYFERLAEN, the amyloid nucleation score is 4.07 ± 0.096.

Substance QISRLKHYQTHVRMLLTLEG had an amyloid nucleation score of -0.068 ± 0.42.

Consider NAPLEWSSGHASQIVLGHVT, for which the amyloid nucleation score is -0.177 ± 0.69.

Consider RVFLTSLEDRVHTLGQATNT, for which the amyloid nucleation score was 1.39 ± 0.5.

In turn, VGHSEIKMTMTRLADLGVCE gave an amyloid nucleation score of 0.612 ± 0.62.

PCTLGFVSSPSDG came in with an amyloid nucleation score of 0.524 ± 0.46.

Substance IVEMHYMAGWTGMEMMSWAH showed an amyloid nucleation score of 0.413 ± 1.

CPRTWFLENNRVTIMHFYRG: the amyloid nucleation score came to 6.67 ± 0.08.

Take CLFNSGFSDIGLRGMWGRKF: the amyloid nucleation score was 0.358 ± 0.35.

Take FFALIYI: the amyloid nucleation score was 0.357 ± 0.36.

With PVMSRPAARMMGDSCHWSNR, the amyloid nucleation score was -0.585 ± 0.8.

In turn, RGVYNDSMERMPDNCSFYNK showed an amyloid nucleation score of -0.641 ± 1.5.

Take CDQASL: the amyloid nucleation score entry was “inactive”.

For TGRAPSVLHNKR, the amyloid nucleation score was -0.842 ± 0.64.

On to CFILTVTYLNVGGNRMTAFH, for which the amyloid nucleation score was determined as 3.36 ± 0.1.

NIWVLTYCLVYLSWSNHVF: the amyloid nucleation score is -0.709 ± 0.78.

HHWNLIEHYMLDECMEHLNS: the amyloid nucleation score is -0.183 ± 0.31.

Consider EGVNYIMKDVLLVDTKVAEN, for which the amyloid nucleation score is -0.175 ± 0.66.

Regarding ILKEIMIGGRDRTDDWKSHG, the amyloid nucleation score is -1.3 ± 0.8.

Substance TTSRAWFYL returned an amyloid nucleation score of -0.353 ± 1.

In turn, SVTDRKV came in with an amyloid nucleation score of 0.468 ± 0.41.

DMKDDRRSFTKGP displayed an amyloid nucleation score of -0.103 ± 0.69.

LYSLATIDNYMPWCQGSSGS: the amyloid nucleation score entry is “inactive”.

In the case of SVPAHFNRYMCNRGYCRFRR, the amyloid nucleation score entry is “inactive”.

CFSQPHGAVANHNAFSDNPW registered an amyloid nucleation score of -0.289 ± 0.39.

The substance SYQSDDLWQETKPALSPLLE showed an amyloid nucleation score of 0.119 ± 0.46.

In turn, SLFHLNFTIRWVDHAADSLV yielded an amyloid nucleation score of 1.98 ± 0.56.

Substance VRMDHIRTKPPLHAIVAPQP registered an amyloid nucleation score of -1.68 ± 2.4.

Take CVVGLISGSPPIRSVFKCNR: the amyloid nucleation score is 0.156 ± 0.98.

Substance SLGVYGQGSGWMLVVNVWEV gave an amyloid nucleation score of 1.97 ± 0.24.

Substance RKIEWTVSLRGGRKCYFSGE came in with an amyloid nucleation score of -0.012 ± 0.3.

In turn, TYWQVARTSPSF displayed an amyloid nucleation score of 0.547 ± 0.33.

Take RLPLHHTCYVIC: the amyloid nucleation score came out at 0.468 ± 1.2.

For the substance CRLKLNPSVHGIGRGVCLAE, the amyloid nucleation score is -0.464 ± 0.48.

Turning to GNVSDYVVMIGVMVSLPCLI, the amyloid nucleation score is -0.222 ± 0.56.

VDGLHLNSYYEPVSMMSIVV came in with an amyloid nucleation score of -0.336 ± 0.43.

In turn, LCMNCVIQSDKRSSLLCYER came in with an amyloid nucleation score of -0.636 ± 1.2.

As to NFVGFL, the amyloid nucleation score is -0.33 ± 0.58.

Turning to KRSRYSKR, the amyloid nucleation score was 0.103 ± 0.48.

TFIAGAI showed an amyloid nucleation score of -0.44 ± 0.37.

As for VWRSFSGNITCMLFYNFPVR, the amyloid nucleation score is -0.621 ± 0.95.

In turn, FIRIVRIYSLEFALYLGVFQ registered an amyloid nucleation score of 4.51 ± 0.05.

Substance GGQFHEEFSNEINEVQDCVL had an amyloid nucleation score of -0.15 ± 0.75.

In turn, YCYEQVDSV came in with an amyloid nucleation score of 0.154 ± 0.42.

On to CDIVNKSTGGLSTRALKIVY, for which the amyloid nucleation score came to 0.051 ± 0.69.

LPYNHTQTVMDFIYFVFWLL yielded an amyloid nucleation score of 0.698 ± 0.24.

As to SSDFY, the amyloid nucleation score is -1.46 ± 1.3.

Turning to WLIQE, the amyloid nucleation score came out at 1.24 ± 0.71.

The substance VRFFAPPWTWWLC yielded an amyloid nucleation score of 0.087 ± 0.44.

Turning to IGCSCGLHT, the amyloid nucleation score entry is “inactive”.

With GVGVLLSYSELFDSTIEGPT, the amyloid nucleation score was determined as 0.664 ± 0.59.

Substance DCSFRCMYAIMLYVLCLSHN gave an amyloid nucleation score of 0.422 ± 0.35.

As to TSEDMC, the amyloid nucleation score was -1.18 ± 2.1.

Turning to LILFWF, the amyloid nucleation score is -0.5 ± 1.4.

Substance WIFQY showed an amyloid nucleation score of 1.43 ± 0.72.

With IMYNCRYWSGVTLHYSVVQH, the amyloid nucleation score is 1.89 ± 0.16.

Substance AYCFNSTGLSRFCSKYLWSN came in with an amyloid nucleation score of -0.478 ± 0.45.

For TKPMIMSTFSEFCIPCTMRL, the amyloid nucleation score amounted to 0.182 ± 0.55.

On to FVGLVDN, for which the amyloid nucleation score came out at 0.051 ± 0.49.

Regarding MPTRKTMDGYASIEF, the amyloid nucleation score was -0.486 ± 0.41.

On to AFLLEMKTKAATPRCYLRDM, for which the amyloid nucleation score is 0.532 ± 0.85.

With LWKNVVWTTGPIIASWVSDL, the amyloid nucleation score is 2.04 ± 0.11.

The substance RMAKYNFVIISVTDDVRQKC displayed an amyloid nucleation score of 2.42 ± 0.14.

In turn, LSFWLCSWSMWCKSQLGNDR yielded an amyloid nucleation score of 2.13 ± 0.13.

For LVCSGKWFVKSARLQ, the amyloid nucleation score worked out at 0.962 ± 0.14.

MSYCFF displayed an amyloid nucleation score of 0.022 ± 0.55.

Substance YCIGYGKICSYMRIVSSGLQ had an amyloid nucleation score of 0.901 ± 0.24.

Substance PCSQPFT showed an amyloid nucleation score of -0.154 ± 0.45.

In turn, RGFLRRHGGKGFNVLQAVGR displayed an amyloid nucleation score of 1.16 ± 0.72.

In turn, THMGRTLSCFGMMSWSSDVA registered an amyloid nucleation score of 5.88 ± 0.065.

Consider SSLKVLIPYSCYHFV, for which the amyloid nucleation score was found to be 2.76 ± 0.1.

Consider GFGWLCYCGPYNLGRFSLSV, for which the amyloid nucleation score was -0.124 ± 0.66.

IHSGQAEMGTLRYHSNKCKD returned an amyloid nucleation score of -0.554 ± 1.7.

GVDGYDLRGLSWEVAKEFKS gave an amyloid nucleation score of 0.73 ± 0.67.

Consider TTRCVFSPDNVDTDY, for which the amyloid nucleation score result was “inactive”.

For GFPSRSIHFKLYLAANMQ, the amyloid nucleation score stood at 1.07 ± 0.53.

DKYTARDVSKRT yielded an amyloid nucleation score of 1.56 ± 0.59.

With CNFHVCLRLRDIWSRLYLVV, the amyloid nucleation score is 7.157 ± 0.07.

NRHEILHIVG: the amyloid nucleation score was found to be 1.67 ± 0.63.

WREYRLWDEG: the amyloid nucleation score is -0.208 ± 0.36.

TLCINWKPFP displayed an amyloid nucleation score of 0.308 ± 0.38.

Turning to CRMGFNQLWLKLRNRCVGLG, the amyloid nucleation score is -0.008 ± 0.36.

Take YFSSYFV: the amyloid nucleation score was 0.118 ± 0.41.

RIEHISQRQCMTFSIVTVVN had an amyloid nucleation score of -0.49 ± 1.1.

As to RLDCIHNFALNSYFRIGAWG, the amyloid nucleation score is -0.215 ± 0.45.

Substance WMVSSVIRARGL registered an amyloid nucleation score of 3.23 ± 0.12.

In the case of GETLEVWFFRRRVIRWR, the amyloid nucleation score result was “inactive”.

Substance LSGPLNGEDFHRIFQVDFRW registered an amyloid nucleation score of 0.244 ± 0.79.

ANWFL: the amyloid nucleation score is 0.479 ± 0.45.

The substance LRNIGCKY gave an amyloid nucleation score of 1.01 ± 0.64.

As to IRVSFIVQSCILSALEDALN, the amyloid nucleation score amounted to 2.68 ± 0.13.

Regarding AFLGYNKIVGLNLAVLNTVG, the amyloid nucleation score result is “inactive”.

LSDFLRPLVLVFLSTLEVAM came in with an amyloid nucleation score of 0.138 ± 0.35.

As to GGFFALTYVWSHVHRWS, the amyloid nucleation score entry is “inactive”.

As to KLLWSPYSGCVVYNIKVKGR, the amyloid nucleation score stood at 3.67 ± 0.13.

Consider SSNYADNEGSAHQFGNRRES, for which the amyloid nucleation score was -0.108 ± 0.43.

SVKYMVIDFQLKRMEVVINK showed an amyloid nucleation score of 0.354 ± 0.36.

For the substance KTHQLTSRTEWLYGVGVSAQ, the amyloid nucleation score is -1.78 ± 2.4.

Take ISTNLHGDIKMVFVAIPWQE: the amyloid nucleation score stood at 4.85 ± 0.09.

ALIFYRFLL showed an amyloid nucleation score of 0.863 ± 0.41.

The substance MMVFKVSFKVIKVT yielded an amyloid nucleation score of -0.07 ± 0.86.

As for AYETLR, the amyloid nucleation score was -0.385 ± 0.59.

RFSSQTFY registered an amyloid nucleation score of -1.08 ± 2.4.

In turn, YPTYCLGCMS gave an amyloid nucleation score of 0.672 ± 0.51.

MCLFENMFDHFSGSLQSHGG showed an amyloid nucleation score of 0.318 ± 0.27.

Consider LSPGRYFDSPL, for which the amyloid nucleation score was found to be 0.589 ± 0.77.

Turning to RIDLGQTVFMVKYIAA, the amyloid nucleation score turned out to be 0.122 ± 0.17.

IRAFSWTIMLLFYCWWHVEN showed an amyloid nucleation score of 0.402 ± 0.86.

For MDRNFSILTF, the amyloid nucleation score entry is “inactive”.

For MVSSCWICRALKAYVLQPWV, the amyloid nucleation score turned out to be 0.108 ± 0.72.

LMFGRKCMLSLFPVRFHRCH: the amyloid nucleation score was found to be 0.378 ± 0.9.

Substance WRSVPRASFRNWSLWDPLYT displayed an amyloid nucleation score of 0.453 ± 0.29.

Substance RTMKRSLSCVHCLLCLSPCQ came in with an amyloid nucleation score of -0.102 ± 0.29.

SCSWFFTYIVVAVNTLSISY registered an amyloid nucleation score of -0.444 ± 0.75.

Take GSLPIRNTFTWGEL: the amyloid nucleation score result was “inactive”.

The substance FGNRDFSQSDYNSCVFATGS displayed an amyloid nucleation score of 2.2 ± 0.44.

VNVITGWCAQELVVRAILEI: the amyloid nucleation score came to 0.341 ± 0.4.

On to CLDVFASISMRHFYFVFMCY, for which the amyloid nucleation score came out at 0.487 ± 0.75.

As to WGDLHRMVMISREVEPVSNI, the amyloid nucleation score is -0.361 ± 0.78.

For VRLNQLDNSLAVRSATNPGA, the amyloid nucleation score stood at 0.524 ± 0.65.

As for PYSLQSTLHVRER, the amyloid nucleation score stood at 0.485 ± 0.35.

Take SGMSGCPKCGSWGSNKWYLW: the amyloid nucleation score is -0.004 ± 0.44.

LHVRVCMYADMLSFYGSFAY displayed an amyloid nucleation score of 2.68 ± 0.085.

FNRKISFFCN gave an amyloid nucleation score of -0.393 ± 0.4.
